Assay results taken from US20040248211A1, “ICAM-related protein” (priority 1992, published 2004).
Numbering of substitutions follows the chain as printed.

Assays:
SKW3 cells = test: Adhesion of PMA-activated SKW3 cells to plate-bound protein; type: cell-based, human; conditions: PMA-treated cells
Method: The partially purified shICAM-R protein was assayed for binding to SKW3 cells that were pretreated with phorbol ester as described in Example 7 to activate LFA-1-dependent adhesion. The ICAM-R protein was coated onto 96-well Immulon 4 (Dynatech) plates after adjusting the lectin eluate to 25 mM carbonate pH 9.6 and incubated overnight at 4° C. The plates were washed two times with PBS, blocked for 30 minutes at 37° C. with 200 ul/well PBS, 1% BSA, and washed again with PBS before adding cells. SKW3 cells were washed in serum-free RPMI (Gibco), labelled with Calcein-AM (Molecular Probes), and stimulated with PMA. Cells were then added to the plates and incubated for 1 hour at 37° C. The plates were inverted in prewarmed PBS, 1% BSA and were incubated for 30 minutes. The plates were then removed and half of the contents of each well was aspriated. The plates were then scanned with a fluorescence microscope and an automated fluorescence reader.
Peak fractions from wtHis6, E37His6 and mock transfectants were concentrated about 6.5 fold using Centricon 30 (Amicon) centrifugation units. The resultant concentrates were adjusted to equal vols. (0.34 ml) using PBS-D. Control soluble ICAM-R (15 ug/ml) (Example 9) in carbonate buffer pH 9.6 or in buffer D with 40 mM imidazole were made up. […]

[1] = target: T1, soluble baculovirus produced human ICAM-R (Homo sapiens, UniProt P32942); test: ELISA binding of recombinant ICR-1.1 antibodies
T1 sequence (P32942 30-485 limits assumed): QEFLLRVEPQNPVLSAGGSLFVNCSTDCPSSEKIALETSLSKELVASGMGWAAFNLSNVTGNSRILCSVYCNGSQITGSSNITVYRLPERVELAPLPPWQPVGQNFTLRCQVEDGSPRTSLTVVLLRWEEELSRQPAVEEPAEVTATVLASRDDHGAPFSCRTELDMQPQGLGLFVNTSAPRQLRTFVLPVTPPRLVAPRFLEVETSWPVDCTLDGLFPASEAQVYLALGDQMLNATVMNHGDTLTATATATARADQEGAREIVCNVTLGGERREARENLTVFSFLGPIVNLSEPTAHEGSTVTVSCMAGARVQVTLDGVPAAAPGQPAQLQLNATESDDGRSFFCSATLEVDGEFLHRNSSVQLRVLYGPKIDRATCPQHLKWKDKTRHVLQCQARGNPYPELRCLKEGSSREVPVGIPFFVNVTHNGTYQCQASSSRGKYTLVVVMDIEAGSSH

[2] = test system: JY cells (LFA-1) binding to ICAM-R/IgG; test: JY cell binding to plate-bound ICAM-R/IgG chimeras; type: cell-based, human; conditions: chimera coated at 10 μg/ml
Method: The binding of the lymphoblastoid cell line JY, which expresses LFA-1, to wild type ICAM-R/IgG chimera was examined in the presence and absence of LFA-1 specific antibodies or antibodies specific for either domain 1 or 2 of ICAM-R. ICAM-R chimeras were diluted to 10 μg/ml in 0.1M Na-carbonate/bicarbonate buffer pH 9.6 and used to coat triplicate wells (50 μl/well) of an Immulon 4 96-well plate (Dynatech) overnight at 4° C. Wells were washed three times in PBS and blocked with 1% BSA (in PBS) for 1 hour at 37° C. JY cells were labeled with the fluorescent dye Calcein (Moleculat Probes, Eugene, Oreg.) at 8 μg/ml at 37° C. in serum free RPMI for 20 minutes. Cells were washed with RPMI and resuspended in binding buffer (0.2% HSA in RPMI. Approximately 1×10^5 cells were added to each well containing the binding buffer with or without antibody (20 μg/ml of ICR-2.1, ICR-1.1, ICR-3.1, ICR-5.1, ICR-7.1, ICR-8.1, ICR-4.2, ICR-6.2, ICR-9.2, TS1/22 or 60.3) so that the final volume was 0.35 ml. Plates were incubated at 37° C. in the dark for 45 minutes and input fluorescence was quantitated with a fluorescence reader (Millipore) in a 96-well format. Unbound cells were removed by inverting the plate in 0.1% BSA in PBS for 20 minutes. Bound cells were quantitated by measuring the remaining fluorescence and presented as percent input minus background binding to wells coated with BSA alone.

B1: wtHis6: wild type histidine tagged soluble ICAM-R extracellular domain (protein)
chain: QEFLLRVEPQNPVLSAGGSLFVNCSTDCPSSEKIALETSLSKELVASGMGWAAFNLSNVTGNSRILCSVYCNGSQITGSSNITVYGLPERVELAPLPPWQPVGQNFTLRCQVEGGSPRTSLTVVLLRWEEELSRQPAVEEPAEVTATVLASRDDHGAPFSCRTELDMQPQGLGLFVNTSAPRQLRTFVLPVTPPRLVAPRFLEVETSWPVDCTLDGLFPASEAQVYLALGDQMLNATVMNHGDTLTATATATARADQEGAREIVCNVTLGGERREARENLTVFSFLGPIVNLSEPTAHEGSTVTVSCMAGARVQVTLDGVPAAAPGQTAQLQLNATESDDGRSFFCSATLEVDGEFLHRNSSVQLRVLYGPKIDRATCPQHLKWKDKTRHVLQCQARGNPYPELRCLKEGSSREVPVGIPFFVNVTHNGTYQCQASSSRGKYTLVVVMDIEAFSSGPGHHHHHH
- adhesion of SKW3 cells to plate bound protein (SKW3 cells): functions as an adhesive ligand for SKW3 cells

B2: HuVH: humanized ICR-1.1 heavy chain V region (Met48) (antibody, V domains shown)
VH: GVQSQVQLVQSGAEVKKPGASVKVSCKASGYTFTVYWMHWVRQAPGQGLEWMGYINPNTDYTEYNQRFQKRVTITADTSTSTAYMELSSLRSEDTAVYYCARWGGNSYGLDYWGQGTLVTVSS
- deficit in binding compared with murine progenitor chain, ICR-1.1 versions [1]: 2-3 fold

B3: HuVK: humanized ICR-1.1 kappa chain V region (antibody, V domains shown)
VL: GARCDIQMTQSPSSLSASVGDRVTITCSASSSVSYIYWYQQKPGKAPKLLIYLTSNLASGVPSRFSGSGSGTDFTLTISSLQPEDFATYYCQQWKSIPLTFGQGTKLEIK
- deficit in binding compared with murine progenitor chain, ICR-1.1 versions [1]: 2 fold

B4: L121/P: ICAM-R/IgG chimera with domain 2 mutation L121/P (protein, UniProt P32942 30-485, looked up, variant L121P)
extracellular domain: T1 sequence (P32942 30-485 limits assumed) with L121P
modifications: extracellular domain fused to IgG Fc
notes: ICAM-R/IgG chimera with domain 2 mutation L121/P
- LFA-1 mediated JY cell adhesion to variant ICAM-R/IgG chimera [2]: wild type levels of LFA-1 mediated binding
